Columns and labels:
Test in all cases: SPR
[1] = target: plasma-derived C3b (unfractionated) (human) (UniProt P01024)
[2] = target: plasma-derived C4b (unfractionated) (human) (UniProt P0C0L4)
[3] = target: His-tagged CSL040/LHR-ABC (human) (UniProt P17927)

Row | Substance | Kd [1] [nM] | Kd [2] [nM] | Kd [3] [nM]
1 | LHR-BC (soluble human CR1 truncation), untagged (from UniProt P17927 490-1392) (domain or fragment) | 78.2 | 581 | 
2 | LHR-AB (soluble human CR1 truncation), untagged (from UniProt P17927 42-939) (domain or fragment) | 305 | 530 | 
3 | LHR-AA (soluble human CR1 variant with two tandem LHR-A domains), untagged (from UniProt P17927 42-489; P17927 42-489) |  | 1540 | 
4 | plasma-derived C3b dimer (purified by size-exclusion chromatography) (from UniProt P01024 749-1663; P01024 749-1663) (complex) |  |  | 3.8
5 | plasma-derived C3b (unfractionated) (from UniProt P01024 749-1663; P01024 749-1663) (ligand) |  |  | 134

Results, then the substance that gave them:

Row | Kd [1] [nM] | Kd [2] [nM] | Kd [3] [nM] | Substance
6 |  | 1230 |  | LHR-A (soluble human CR1 truncation), untagged (from UniProt P17927 42-489) (domain or fragment)
7 | 337 | 1910 |  | LHR-B (soluble human CR1 truncation), untagged (from UniProt P17927 490-939) (domain or fragment)

Reference: article PMC11261467
